Reference: article PMC11234212

How the values were obtained:
[1] = RALY ubiquitination western blot
[2] = half-life analysis, western blot, Hep3B and Huh7; details: glycan gained; control: DMSO
[3] = western blot of RALY protein
[4] = glycan lost, control: RALYKO-WT
[5] = glycan gained, control: untreated / control-transfected cells

B1: RALY: S176A (protein)
parent chain: MSLKLQASNVTNKNDPKSINSRVFIGNLNTALVKKSDVETIFSKYGRVAGCSVHKGYAFVQYSNERHARAAVLGENGRVLAGQTLDINMAGEPKPDRPKGLKRAASAIYSGYIFDYDYYRDDFYDRLFDYRGRLSPVPVPRAVPVKRPRVTVPLVRRVKTNVPVKLFARSTAVTTSSAKIKLKSSELQAIKTELTQIKSNIDALLSRLEQIAAEQKANPDGKKKGDGGGAGGGGGGGGSGGGGSGGGGGGGSSRPPAPQENTTSEAGLPQGEARTRDDGDEEGLLTHSEEELEHSQDTDADDGALQ
Question: For B1, which degradation_or_half_life (CHX chase, western blot; [4]) is on record?
Answer: Its degradation_or_half_life is “decreases”.

Question: What about the “other: ubiquitination” value [1, 4] of the same protein?
Answer: Its value is “increases”.

B2: RALY: PUG (protein)
parent chain: B1 parent chain
Question: With B2 as the protein, how does the “degradation_or_half_life, half_life” value [2] read?
Answer: Its value is “increases”.

Question: And the expression_or_secretion [3, 5]?
Answer: Its expression_or_secretion is “increases”.

B3: RALY: TMG or PUG (protein)
parent chain: B1 parent chain
Question: With B3 as the protein, how does the degradation_or_half_life (CHX chase, western blot; glycan gained, control: untreated RALYKO-WT) read?
Answer: The degradation_or_half_life was “increases”.

B4: RALY: siOGT (protein)
parent chain: B1 parent chain
Question: Which expression_or_secretion ([3]; glycan lost, control: untreated / control-transfected cells) does the source give for B4 here?
Answer: The expression_or_secretion was “decreases”.

B5: RALY: TMG (protein)
parent chain: B1 parent chain
Question: Which “degradation_or_half_life, half_life” value [2] does the source give for B5 here?
Answer: The value was “increases, approximately 40 (Hep3B), 32 (Huh7) vs approximately 16 (Hep3B), 15 (Huh7)”.

Question: What about the “other: ubiquitination” value ([1]; glycan gained, control: untreated) of the same protein?
Answer: Its value is “decreases”.

Question: What about the expression_or_secretion ([3]; glycan gained, control: TRIM27-overexpressing cells without TMG) of the same protein?
Answer: The expression_or_secretion was “increases”.

Question: What about the expression_or_secretion [3, 5] of the same protein?
Answer: Its expression_or_secretion is “increases”.

B6: RALY: OE-OGT (protein)
parent chain: B1 parent chain
Question: With B6 as the protein, how does the expression_or_secretion [3, 5] read?
Answer: The expression_or_secretion was “increases”.
